Here are results for three molecules from article PMC7195465, “Molecular mechanism of light-driven sodium pumping” (Nature Communications, 2020).

What all share (experiment): crystal structure; in meso (monoolein) crystals, 1.2 M sodium malonate pH 8.0, grown at 22 °C; pentameric form, space group C222_(1); data at 100 K and at room temperature
The target of data set [1] is KR2-D116N (Krokinobacter eikastus).
Data set [2] addresses KR2-H30A (Krokinobacter eikastus).
Data set [3] deals with the molecule itself.

Turning to KR2-D116N (natural protein), the stoichiometry N in data set [1] came to 5.

KR2-H30A (natural protein) returned a stoichiometry N in data set [2] of 5.

B1: light-driven sodium-pumping rhodopsin KR2 from Krokinobacter eikastus (natural protein)
chain: MTQELGNANFENFIGATEGFSEIAYQFTSHILTLGYAVMLAGLLYFILTIKNVDKKFQMSNILSAVVMVSAFLLLYAQAQNWTSSFTFNEEVGRYFLDPSGDLFNNGYRYLNWLIDVPMLLFQILFVVSLTTSKFSSVRNQFWFSGAMMIITGYIGQFYEVSNLTAFLVWGAISSAFFFHILWVMKKVINEGKEGISPAGQKILSNIWILFLISWTLYPGAYLMPYLTGVDGFLYSEDGVMARQLVYTIADVSSKVIYGVLLGNLAITLSKNKELVEANS
modifications: retinal covalently bound to the lysine residue of helix G via the Schiff base
notes: KR2, light-driven Na+-pumping rhodopsin of Krokinobacter eikastus; Pentamer in the crystals grown at pH 8.0; the construct is not described beyond 'KR2 expression plasmid'; also called KR2-WT; WT protein; source: E. coli SE1 (Staby Codon T7), purified (DDM solubilisation, Ni-NTA, SEC)
Turning to B1, in data set [3], the “stoichiometry N” value worked out at 5.
